Results: the DeepSol protein solubility set

Experiment: soluble on expression in E. coli; label from the status in PepcDB or PDB records

Sequence | soluble on expression in E. coli
MTIKNVICDIDGVLMHDNVAVPGAAEFLHGIMDKGLPLVLLTNYPSQTGQDLANRFATAGVDVPDSVFYTSAMATADFLRRQEGKKAYVVGEGALIHELYKAGFTITDVNPDFVIVGETRSYNWDMMHKAAYFVANGARFIATNPDTHGRGFYPACGALCAGIEKISGRKPFYVGKPSPWIIRAALNKMQAHSEETVIVGDNLRTDILAGFQAGLETILVLSGVSSLDDIDSMPFRPSWIYPSVAEIDVI | soluble
MSENLHTIIHHVDFFPLRIRVFRNGDMFDHGRILVVTRKQFKHWIVFLDALTDLLRTATAVRRLFTTQGIPVHHFDDLETNGEYVAVETGPFVNVPYGQARFTLRLKRYNPIIRAPELIPTFLHSAESMDIYLKKEGYGTITGLPYPFDGILSRSPSASNIQIKHLQSHHIPPLKIGGSMEHLNELGTASWLGKNEKWMMGERVKLETQSQTLAQKSEKDEQIPRLDIKEVDGGSTTSEFMRNGEKSKSTTKLPRLLNSNRSFRREPVSAQKPPSEEPRSTSENLPPIDLKSIQISQNSQSTSQKKDSDTISIKTEEEVISILKPEKTTTESIVSSKISRKNAPKDDDEVRFHRSYQVTETTYTTRNSDETDRRKPENVEKTVESKNDRSVQDKSEKIEKKVPEKLSKPQKTETTKSKERAKWADQGNTTLKREKSIEKSTRQGKIDKSIEKLIDKSIDNTEKLSSQKPKIDMAKGELRKFDVDINEIPIRFEGPMVNKSRINTSRIVTSRSTTNLFVDEIVNEDELDDVIERAQLWDLNRRRQNMRQQHTQTSGSLCRSISAPRRRVVLFDPDFD | not soluble
GRYTQIRFDEDIKRPFPELQQEFLSLLRKSVSEAVQGQKAGTFLSGGTDSSTLAGILTEVTGEPAKTYSIGFEATGYDEMHYARIAARHFATDHHEYYVTPDDVVETIPLIASVFDQPFGNASALPAYYCGRMARNDGLDLLLGGDGGDELFGGNVRYAKQYIFSLYDKIPAPLRNYLLSPFILSLPENKGPKLLRKARSYVAQATVPMPHRMETYNLLAHYGFETVFSPELLAKIDTAQPALLIERTYQDVSHARSLINRMLAFDWKFTLADNDFPKVVQACHLAGMEVAFPFVNDEILAFSLALPPEQKLKGTQLRYFFKQALRGFLPDEIITKQKQGFGLPFGVWLQTHRPLREIAADSLSDLKSRNIIRTDFIDQLLDQHLHEHASYHGTMVWLLMMLEYWFKQH | not soluble
MAATCSWKTCEETEQNTFIVKFSNGNVKNAEELDFTVFKHSNASNPRKKNRRIVVADSDRLPYVGSNFGSGSLQSNNMCKYFVGVLDKQTMQMKVHSAQLFNMLPVIPGEATEAESENQPSTFRDKVDALIEAFGTNKQKRALSSRRLNAVGNETLHQAVAQAASNIIDQKGVEALRNEVIETEAQSDAALFLPPCNANADKLEDVYPFDQLLTPNEFESLKEVGAKYATLSSEDLQKMRDNHCPQTVLKHLETLSKDEADRDRQCRCAWYLSFVIRASLQKRISFKFGSDDGCPRIIINKVLKNFTVESFHNGSLRNTVSMSMRMKMASYCLALLLHMGGQTANLTLLHRDMSISENKMLEVAKAMGLTLSRQNALGKEGGLIEDEHRMVSLVLPLVHYDRRTERKKRKRMN | soluble
MGSDKIHHHHHHMELQVFTNEQFGEVRTATINNQIYFNLNDCCQILELSNPRKTIERLNKDGVTTSDIIDSLGRTQQANFINESNFYKLVFQSRKPEAEKFADWVTSEVLPSIRKHGAYMTEQTLEQALTSPDFLIRLANELKEEKERSRQLEAEKSILSVENMVMKPKADYFDDLVDRNLLTSFRETAKQLKVKERRFIQFLLDKKYVYRDKKGKLMPFADKNNGLFEVKESVNEKTNWAGTQTLITPKGRETFRLLFI | not soluble
MGSDKIHHHHHHMRLTCAIIDDEPLAVSLLESYVLKTPFLDLQGTYNSALDALSDLRDRPVDLLFLDIQMPELSGLEFSRILNADTRVIFTTAFDQYAVDSYRVNALDYLLKPISYPDFLASANKALRWYELLRKPVSSEEKEGSAPIAEKGGMESIFVKSEYKLLQIELRKILYIEGLKDYVKIFVEDEPRPVLSLMSMKSLEDMLPSDRFVRVHRSFIVQPEKIKVIERNRIVFGKEYIPISDNYKQHFLEMIERRSILPK | not soluble
SATTVTLEKCGHNKGYKGLDNCRFCPGSQCCVEDGPESIDSIIDMDAVCKRVTTLGLDVSVTISQDAGRYLCDFTYYTSLYQSHGRSAFVHVPPLGKPYNADQLGRALRAIIEEMLDLLEQSEGKINYCHKH | soluble
GAMDPMKAKRVQAKIEMEFPSEDVAKVVYEAVLYEHLSVPYRRSEIDFKLEGKKIILDIKATDSSALRGTVNSYLRWIKAAIDVIEV | soluble
MSLLKQKILNRESGIITYGITPPKKNNTEEKIKEISQKHIERISGLDIDGLVIYDLQDEKERVSEERPFPFIETIDPQIYSENYLKDLKIPKIIYRCVGKYTPDEFRRLTRPVSGQDAFSVFVGAASRNQSVLLKLSDAYKIRQDVNPDLLLGGVAIPERHMKNTDEHLRIIDKINKGCKYFITQAVYNVEAAKDFLSDYYYYSKNNNLKMVPIIFTLTPCGSTKTLEFMKWLGISIPRWLENDLMNCEDILNKSVSLSKSIFNELMEFCLEKGIPIGCNIESVSVRKVEIEASIALAKDIKYIMKGEGHHHHHH | soluble
MAGDPMKAREVEFEGHLIDSMIFTKALDIILDLDGEFEILEFRVGKKKDDPSYARMIVFGRDDAHLEQILKELHKIGARIPDIEEVELAEAPADKVLPDGFYVTTNHPTFVRYGGEWLPVEDISMDRVIVIRDGRAYCIPIDEVVRGDRVVVGEKGVRVVPPERPRKSTVFEFMGGRVSSERPTERMIEAIAREIYELKLKGGKIAVVAGPAVDHTSARNALAALIRDGYVDLLLSGNALAVHDIEISIFGTSLGMDICKGRPVPGGNRHHLYTISKVIAAGGIKKAIEKGIIKDGIMYECVKNNVPFILAGSIRDDGPLPEVITDVMVAKKKMKEALRGINMVIMLATMLHSIAVGNLLPSYVKTICVDMNPSTVTKLMDRGTHQAIGVVTDVGLFLPLLYLKIKEIEAKELEHHHHHH | soluble
MGHHHHHHSHMACYIYQLPSWVLDDLCRNMDALSEWDWMEFASYVITDLTQLRKIKSMERVQGVSITRELLWWWGMRQATVQQLVDLLCRLELYRAAQIILNWKPAPEI | not soluble
MAHHHHHHMKLQKQQQQKRMTGLKEKRIACRLTYIWLSGRDSHHDIRSKDRTAYLTTEEVAKHPKELLADGIFPVWNFDGSSTKQVCGADTEILLNPVNAYHCCLPRLSTTVPWILVLAECCLPNGEPTNDNSRAVARRIFERAPEEHPWFGMEQEFFLIKDGHPYGWPPRGFPAPQGPYYCSTGCLCVHGRRYVDLHYEVCLQMGLNISGTNAEVAPGQWEFQVGPCEGIEMGDQLTVARWVLLRILEDDGLDADYRAKPIRGEWNGSGLHTNFSTASTRNENGLSVIYEYVERLKKTISKDIVLYGAENNERLTGKYETSKPNEVTAGVGTRGTSIRIPNAVAAERKGYMEDRRPAGDADPYLVSARLFASCVCIESPELDLISSFHERSWMKFGDLS | soluble
MTLPMQETRFSILLDELAAKQEAAIAPHLLADGTKVWIRKAGRHNARWRYALLGMVARYLKLGVLKPVPSLGGEPAIATESKRLYELRSAGIAVPELLAVRKNALMFGNLEGIPLDAQIRQEAEAGKSDAWLAGLEAIARVHKKRQFLSQAFARNMMSDGKNISFLDFEDDPSEVLTIAQCQARDWLCYIHSTALILKNGGLLEAAAEKWGGVLSDQPAEIQKLIAATVKPILPIRRLEHPRWGRDALRLAASISLISLADMPP | not soluble
MADEALFLLLHNEMVSGVYKSAEQGEVENGRCITKLENMGFRVGQGLIERFTKDTARFKDELDIMKFICKDFWTTVFKKQIDNLRTNHQYLAFTCGLIRGGLSNLGIKSIVTAEVSSMPACKFQVMIQKL | not soluble
MLQIIVPMAGAGSRFAVAGYTDPKPLIPVHGVPMIKVVIDNLTPDCPHRFIFICQAEQVAAYGLREKLNAWAPGCGIVELGGLTGGAACTVYAARHLINYDQQVMIANSDQYVDVDINAYLHAMNECDAAGLIMTMKASDPKWSFVGFDSQGHINRVVEKEVISDEATVGIYNFRSGGQLVSAIEAMVLKDLRVNGEFYVAPAYNELIEQGAKVIHYSIGAEGHGMYGLGIPVDLNLFLSLPLSRQAASGVGNLEHHHHHH | not soluble
MKKRVHILIMTLMLIVACVGCSGSSDNPPPANSLHSASTIPISAMPSFSTPSPTVEDTENQQSKTVNYLINSMTLEEKIGQIFIVAFRKGKSSRPLKVLDNSTKLKIQNFNPGGIILFSENIDTIPQTQKLIRDMQEASKIPMFIAVDEEGGRIARIGNNPKMHSTKIPSAQTIGLADDPELAYEAGRILGAELSALGFNMNFAPVADVNTNPDNPVIGDRSFGSDPYKVGLMVQAMSKGMQEQNVCTVLKHFPGHGDTSYDSHLGQVVINHDIERLRQIELTPFKMGIKAGADGVMTAHIIMPNITGSNLPATLSEEILSGLLRNELKHEKLIITDAMEMKAISNYWSSSKAAVMAFKAGADIILMPESFEEAYNGILKAVKDGEITEERLNQSLQRILALKFERNILANKESSVDPEKVLGRQEHTDIVVKIMQKAEEQNIP | not soluble
MSSVGDFEEIILHDLKPYYHVPGAIHSEGITFVKETGTLLWVDIFKGEVHKVEDIEQPESSHSFFSISRANYGKNASIEYPPNPDELKESVGCIFPILDGASQNEIKQVLFGSKFGIGKLDFSKSEWEYVILYSECPELSTDRAYKLRSNDGNVSPDGKYIYVGLMSDFPFDLEPIGCLLRVDLLAHKIELVWNCLLIPNAIHWDESDQKTMYVTDSLNFTIWKCPGGDLLKRDELIDVKNSNNQSFESPEPDGSAIWFSKDGKHSGFLFITVWSTSKVQMFDLTNGKLLKEFILPEQTPRVSCCCFVGKDLFVTTANAEINDAVRTNTDKNGGCIYKIPNVLDGNVPLESTKRQPLH | soluble
QGTDQYTILANRIANAVEQYRSQRALDASRERLSLFIDKSPLGVIEWDESFEVVQVNEKGEEILRRGESALAGKGFETLVPDSALDAVEETITALQEGSGGYYTVLDIETGDGEEIVCEWHNRIIREDGETVAIFSQFQEIT | not soluble
AIAKLPISTISPIHYMKSVVSSRETRNESNKSRRTFASTEWNKIIRETLYLETVYIPVDATSHSPDIIFKLQSPVEPKVLTVGVACKGRWKSEGIGWSDIIDEAKKFLDPVYDQVLSSAMDYHHCMLIIVSTKLSLNVSNELGNQSRCYSSGMFIGGDSFKVPDNCELVILCERDVQMLIDKEILNGLERAFCVSHNPTFWDFGLDLLDRIRNSFLSWQ | soluble
MSTNEAAASQEDIALAQGAVLVKSCQVPDGSIPIRGFDFSTASGPDFSLSAILSSYMSTGFQATHLAQAIQQVNQMLSLRDTPLTCDDDEKLFPYPEGRQKRSCTIFLGYTSNLVTSGLREVLRYCVQRNLVDCIVTSAGGIEEDLIKCLKPSYLGTFTMDGAKLRSNGMNRAGNVLIPNDNYCAFEDWLMPILDECLVEQEEKHLNWTPSKLIQRLGERIGDESSILYWAAKHRIPVFCPALTDGSLGDMLYFHSVKSSPGLRVDIVEDVRHINTIAVKSFKTGSIILGGGVVKHHINNANLMRNGADHTVYINTGQEFDGSDSGAQPDEAVSWGKVKPSAGAVKVHAEATLVFPLLVAETFAKHEGHKD | not soluble
MSRQNPVRSTRGNSLRAREAQQAQDAPLFQESSSNVFVVEKVLNKRLTRGGSEYYIKWQGFPESECSWEPIENLQCDRMIQEYEKEAAKRTTRKRRYSPQPSTSSSAELQPSTSDEWAGKTLKTIIGITKAPGELHFLCKFSDDSVHLIPLREANVRFPSQVIKFYETRLVLQGVSPTIPGGMS | not soluble
